# Data reported in the supplement of paper PMC10126150.
# ± gives the standard deviation of the averaged measurements.
# Test system: ATP
# Assay: switch fluorescence ratio, 500 uM ATP over buffer (Cy3 cluster intensity, sum of 5 cycles each) (fold (ratio)); higher = stronger signal-on switching upon ATP binding; sequences stand for … in TCGTCGGCAGCGTCAGATGTGTATAAGAGACAGTTTTTTTTTTTTTTTTTTTTTTTTT…TC
# Settings: aptamer strand: ATP DNA aptamer (quencher-CACCTGGGGGAGTATTGCGGAGGAAGG + anchor), 100 nM annealed; ATP concentration: 500 uM
# In short: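 Cy3-labelled switching-strand clusters on a modified Illumina MiSeq flow-cell were annealed to 100 nM quencher-labelled ATP aptamer, imaged in selection buffer, then imaged after 15 min with 500 uM ATP at 22 °C. Five buffer/ATP cycles ran, with NaOH stripping and re-annealing between them. The fluorescence ratio is summed target-cycle over summed buffer-cycle Cy3 intensity per cluster, averaged per switch-domain sequence. Clusters outside 100-1000 RFU were excluded.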
# 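Further: ATP exposure 15 min at 22 °C before imaging.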
row,Sequence,switch fluorescence ratio
1,CCCCTTGCTC,1.47 ± 0.058
2,CCCCTTGGGG,1.036 ± 0.0031
3,CCCCTTGTGT,2.087 ± 0.015
4,CCCGACAGCC,1.97 ± 0.3
5,CCCGAGGGTT,1.01 ± 0.017
6,CCCGGGGCTA,1.08 ± 0.036
7,CCCGGGGGGG,1.1 ± 0.13
8,CCCGGGGTAC,2.969 ± 0.027
9,CCCGGGGTAT,1.06 ± 0.057
10,CCCGGGGTCT,1.02 ± 0.026
11,CCCGGGTCGC,1.05 ± 0.012
12,CCCGGTACGG,1.029 ± 0.0017
13,CCCGGTGTGT,1.65 ± 0.025
14,CCCGGTTGAT,1.047 ± 0.0074
15,CCCGTATACT,3.22 ± 1.6
16,CCCGTCAGCG,1.02 ± 0.041
17,CCCGTGCTTC,1.07 ± 0.063
18,CCCGTGGAAA,1.09 ± 0.1
19,CCCTCCTTG,1.0791 ± 6.3e-05
20,CCCTGGCAGC,1.3 ± 0.019
21,CCCTTAGGGA,1.02 ± 0.026
22,CCCTTGATAC,2.24 ± 0.1
23,CCCTTTAGGG,1.025 ± 0.0025
24,CCGAAAAGAT,1.44 ± 0.59
25,CCGAAAGCCG,1.11 ± 0.024
26,CCGAAATGGG,1.5 ± 0.07

row,Sequence,switch fluorescence ratio
1,CCGAACTTTT,1.07 ± 0.075
2,CCGAAGAGTC,1.66 ± 0.28
3,CCGAATTGTA,1.03 ± 0.016
4,CCGACCAGGG,1.3 ± 0.13
5,CCGACTAAAA,4.27 ± 0.41
6,CCGAGAAAAA,1.12 ± 0.14
7,CCGAGAATCG,1.02 ± 0.036
8,CCGAGCGGGA,1.77 ± 0.37
9,CCGAGGGGGT,1.81 ± 1.1
10,CCGATGGGCC,1.22 ± 0.028
11,CCGATTGTGT,1.11 ± 0.017
12,CCGCAGAGTG,3.98 ± 2.1
13,CCGCCAGGTC,2.55 ± 0.13
14,CCGCCTTGGG,1.09 ± 0.029
15,CCGCGACGGG,1.69 ± 0.48
16,CCGCGCCGAT,1.37 ± 0.16
17,CCGCGGGGTG,2.2 ± 0.77
18,CCGCGGGTTT,1.08 ± 0.075
19,CCGCGTCGCT,1.317 ± 0.0055
20,CCGCTAGGGC,2.1 ± 1.2
21,CCGCTTCCGG,1.08 ± 0.018
22,CCGGAAGACG,1.39 ± 0.18
23,CCGGAAGAGA,1.09 ± 0.035
24,CCGGACCAGA,1.15 ± 0.057
25,CCGGACTATC,2.4 ± 0.086
26,CCGGACTTGG,0.96 ± 0.09

row,Sequence,switch fluorescence ratio
1,CCGGATTAA,1.02 ± 0.039
2,CCGGCGCGTT,1.96 ± 1.3
3,CCGGCGGGCT,1.05 ± 0.013
4,CCGGCGGTTG,1 ± 0.012
5,CCGGCTTACG,1.2 ± 0.1
6,CCGGGAGGAT,0.987 ± 0.035
7,CCGGGAGTTA,1.15 ± 0.034
8,CCGGGCGACA,1.11 ± 0.031
9,CCGGGCGGGG,1.07 ± 0.018
10,CCGGGCGTA,1.15 ± 0.083
11,CCGGGGAAGG,1.04 ± 0.0092
12,CCGGGGGAGG,1.06 ± 0.048
13,CCGGGGGGAA,1.03 ± 0.063
14,CCGGGGGGCG,0.976 ± 0.053
15,CCGGGGGGTT,1.09 ± 0.14
16,CCGGGGTACA,1.17 ± 0.17
17,CCGGGGTGTG,1.08 ± 0.012
18,CCGGGTTAGT,1.06 ± 0.017
19,CCGGGTTGTA,1.02 ± 0.046
20,CCGGGTTTGG,0.984 ± 0.017
21,CCGGGTTTTG,1.017 ± 0.0016
22,CCGGTAGGGA,1.01 ± 0.021
23,CCGGTCTGGC,1.01 ± 0.013
24,CCGGTCTTTT,0.961 ± 0.018
25,CCGGTGACGA,1.053 ± 0.0041
26,CCGGTGGGGT,1.01 ± 0.03

row,Sequence,switch fluorescence ratio
1,CCGGTGTGCC,1.01 ± 0.052
2,CCGGTTCATT,1.0368 ± 0.00072
3,CCGGTTTGGG,0.988 ± 0.042
4,CCGTAACGGG,1.09 ± 0.085
5,CCGTAATATT,3.69 ± 1.8
6,CCGTAATGGG,1.85 ± 0.038
7,CCGTAGAATT,1.68 ± 0.046
8,CCGTATAGCT,1.24 ± 0.039
9,CCGTCTCTCC,1.73 ± 0.093
10,CCGTGATATG,2.492 ± 0.0084
11,CCGTGATGGG,1.14 ± 0.066
12,CCGTGCACAT,2.679 ± 0.0035
13,CCGTGCTCTA,1.281 ± 0.0015
14,CCGTGGAAAG,1.02 ± 0.027
15,CCGTGGCGCA,1.88 ± 0.21
16,CCGTGGTAGG,1.01 ± 0.018
17,CCGTTATAGT,1.795 ± 0.012
18,CCGTTCCCGT,1.13 ± 0.028
19,CCGTTGGGTG,1.12 ± 0.071
20,CCGTTGGTAA,1.345 ± 0.0022
21,CCGTTGTCTT,1.03 ± 0.025
22,CCGTTTCCGG,1.02 ± 0.027
23,CCGTTTCTGG,1 ± 0.063
24,CCGTTTGGGA,0.998 ± 0.032
25,CCGTTTTCGG,0.952 ± 0.053
26,CCTAAAGTAG,1.017 ± 0.0071

row,Sequence,switch fluorescence ratio
1,CCTAAATACC,1.29 ± 0.25
2,CCTAAATGGG,1.01 ± 0.077
3,CCTAACAGGA,1.01 ± 0.04
4,CCTAAGGGGG,1.04 ± 0.074
5,CCTAATGCAG,1.11 ± 0.049
6,CCTACCCTCC,3.05 ± 0.22
7,CCTACGTGGT,4.49 ± 0.15
8,CCTAGGGGTC,1.09 ± 0.028
9,CCTAGGGGTG,1.32 ± 0.27
10,CCTAGGGTCA,1.01 ± 0.018
11,CCTAGGGTTC,0.984 ± 0.01
12,CCTAGTTGTG,1.02 ± 0.016
13,CCTATGCGGT,2.6 ± 0.067
14,CCTATGCTTC,3.38 ± 1.7
15,CCTATGGGGT,0.974 ± 0.024
16,CCTATGGTAG,1.014 ± 0.0099
17,CCTATTATTG,0.98 ± 0.028
18,CCTATTGTAT,1.02 ± 0.033
19,CCTATTGTGG,0.993 ± 0.015
20,CCTATTTGTA,0.974 ± 0.051
21,CCTCAAAGGG,1.38 ± 0.18
22,CCTCGCTGAG,3.48 ± 0.98
23,CCTCGGGGGT,1.02 ± 0.04
24,CCTCGGGTTA,1.42 ± 0.038
25,CCTCTATATT,1.181 ± 0.011
26,CCTCTTTTTG,1.02 ± 0.011

row,Sequence,switch fluorescence ratio
1,CCTGAAGACA,1 ± 0.02
2,CCTGAGGGAC,0.99 ± 0.03
3,CCTGAGGGGA,1.16 ± 0.2
4,CCTGAGGTTA,1.03 ± 0.096
5,CCTGATCACC,1.063 ± 0.0098
6,CCTGATGGTA,1.03 ± 0.025
7,CCTGATTTGG,0.969 ± 0.03
8,CCTGCAAACA,2.22 ± 0.17
9,CCTGCAGTTT,1.04 ± 0.019
10,CCTGCGCACG,3.98 ± 0.93
11,CCTGCTTGGT,1.029 ± 0.0082
12,CCTGCTTTGG,1.07 ± 0.083
13,CCTGGCGCCA,1.006 ± 0.0021
14,CCTGGGACCA,0.975 ± 0.0064
15,CCTGGGAGCA,1.08 ± 0.057
16,CCTGGGAGTG,0.999 ± 0.035
17,CCTGGGGATA,1.04 ± 0.024
18,CCTGGGGCGT,1.06 ± 0.12
19,CCTGGGGCTA,1.25 ± 0.021
20,CCTGGGGCTT,1.03 ± 0.033
21,CCTGGGGGGC,1.09 ± 0.18
22,CCTGGGGGTA,1.04 ± 0.024
23,CCTGGGGTAA,1.09 ± 0.039
